According to patent publication US8058228B2, “Leptin peptide antagonists” (Boston Biomedical Research Institute, priority 2004, dated 2011):

Experiments:
OB-R [1] = molecular target: T1, OB-R (Homo sapiens, UniProt P48357); assay: p-STAT3 levels in human endometrial cells (Western blot); type: cell-based; conditions: for effect on leptin-induced increase of p-STAT3 levels: peptide 300 nM
T1 construct: After confirming via Western that the primary EEC and ESC and endometrial cell lines utilized herein had OB-R; endogenous in cells; host or cells: primary human EEC and ESC; Ishikawa (ECACC 9832301) and HES cell lines
T1 sequence (P48357 22-1165): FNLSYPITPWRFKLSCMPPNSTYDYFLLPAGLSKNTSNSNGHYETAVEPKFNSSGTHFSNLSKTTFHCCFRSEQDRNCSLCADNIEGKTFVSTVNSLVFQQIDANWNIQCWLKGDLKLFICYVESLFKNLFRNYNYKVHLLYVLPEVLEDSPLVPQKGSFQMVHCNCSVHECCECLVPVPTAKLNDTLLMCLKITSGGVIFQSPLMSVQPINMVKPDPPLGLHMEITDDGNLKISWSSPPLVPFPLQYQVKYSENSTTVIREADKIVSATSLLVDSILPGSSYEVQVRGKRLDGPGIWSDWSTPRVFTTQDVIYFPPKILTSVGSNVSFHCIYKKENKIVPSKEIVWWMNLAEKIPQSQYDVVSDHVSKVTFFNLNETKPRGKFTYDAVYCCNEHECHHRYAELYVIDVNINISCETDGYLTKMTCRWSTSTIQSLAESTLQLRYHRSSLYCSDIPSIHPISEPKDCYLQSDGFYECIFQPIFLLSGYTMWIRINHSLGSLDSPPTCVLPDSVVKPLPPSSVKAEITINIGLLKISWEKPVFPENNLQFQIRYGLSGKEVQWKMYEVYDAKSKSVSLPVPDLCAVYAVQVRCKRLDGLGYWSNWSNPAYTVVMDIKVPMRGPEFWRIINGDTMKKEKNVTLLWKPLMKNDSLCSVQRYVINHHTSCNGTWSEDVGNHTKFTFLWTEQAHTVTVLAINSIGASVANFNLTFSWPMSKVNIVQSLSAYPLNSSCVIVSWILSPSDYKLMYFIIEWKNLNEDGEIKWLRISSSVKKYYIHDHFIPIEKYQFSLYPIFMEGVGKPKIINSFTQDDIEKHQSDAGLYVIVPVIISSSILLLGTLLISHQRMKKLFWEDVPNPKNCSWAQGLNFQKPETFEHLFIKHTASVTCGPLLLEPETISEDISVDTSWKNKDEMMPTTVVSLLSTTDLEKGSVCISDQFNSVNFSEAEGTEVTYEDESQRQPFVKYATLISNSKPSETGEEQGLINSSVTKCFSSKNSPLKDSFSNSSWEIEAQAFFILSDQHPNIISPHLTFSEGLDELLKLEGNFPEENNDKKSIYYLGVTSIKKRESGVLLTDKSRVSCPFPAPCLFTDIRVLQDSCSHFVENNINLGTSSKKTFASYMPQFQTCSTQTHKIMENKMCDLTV
Protocol: (§1) Primary human endometrial cells (ESC and EEC) were cultured for 5-9 days in DMEM-F12 medium containing 5% fetal bovine serum (FBS), 5 μg/ml insulin, 1% amphopthericin B, 100 μg/ml streptomycin and 100 U/ml penicillin until they were 80% confluent. Two types of endometrial epithelial cell lines, HES (originally derived from a benign proliferative endometrium) and Ishikawa (human endometrial epithelial adenocarcinoma, ECACC 9832301, Wiltshire, England) were cultured under the same conditions described above. The cells were washed twice with 100 mM phosphate saline buffer (PBS), pH 7.2 and cultured for additional 2 days in the same medium but without FBS (basal medium). Cells were washed as described before and cultured in basal medium containing leptin (0, 3, 10 or 62 nM) or IL-1β (0.6, 3 and 10 nM).
(§2) The anti-OB-R antibody (10 and 20 μg/ml) and LPA-2, a specific inhibitor of OB-R (3, 120, 300 nM or 30 μM) were used to assess whether leptin-induced effects were regulated primarily by the OB-R. Non-specific species-matched IgGs to the OB-R antibody and a scrambled version of LPA-2 (LPA-2Sc) served as negative controls (Gonzalez and Leavis, Endocrine 21: 185-195 (2003)). Inhibitors of IL-1R were used (monoclonal antibody anti-IL-1R tl and IL-1Ra) to assess whether leptin activated IL-1 induced signaling pathways or just activated similar components responsible for LIF/LIF-R expression. Treatment with the cytokine, inhibitor or the two combined was implemented for 5, 15, 30 and 60 min, and 24 and 48 h. The cells were prepared for Western blot analysis. The conditioned media was collected, lyophilized and stored at −80° C. until analysis for LIF, IL-1β and IL-1Ra by ELISA could be performed. Duplicate wells were run for each treatment and the experiments repeated at least three times with different cell preparations.
(§3) Endometrial cells were washed with ice-cold PBS and lysed by homogenization on ice with lysis buffer A [[…] Tris, pH 7.4, containing 137 nM NaCl, 2 mM EDTA, 10% glycerol, 50 mM β-glycerophosphate, 1% Nonidet P-40 and a mixture of proteases and phosphatase inhibitors composed of 100 μM antipain, 0.1 mg/ml trypsin inhibitor, protease inhibitor cocktail 1:50 (Sigma), 50 nM NaF, 2 mM phenyl-methylsulfonyl fluoride, and 2 mM sodium orthovanadate]. Cellular lysates were centrifuged at 2400 g at 4° C. for 10 min. For nuclear lysates the cells were scraped from the culture plates and homogenized with lysis buffer B (10 nM Tris, pH 7.4, 0.25 M sucrose, 0.1 mM EDTA containing the same mixture of protease and phosphatase inhibitors as buffer A). Protein concentrations were determined using the Bradford protein assay (BioRad Laboratories Inc., Hercules, Calif.).
(§4) 30 μg of protein from nuclear or cellular lysates were incubated in ependorf tubes containing 0.5 μg of primary antibodies (anti-LIF-R, OB-R, STAT3 and p-STAT3 diluted in buffer A) for 2 h at 4° C. under constant stirring. The immuno-complexes were incubated with 20 μl of Protein G-Agarose (Amersham Pharmacia Biotech) diluted 1:1 with buffer A for a 2 additional hours under constant stirring. The beads were centrifuged for 1 min at 1000 g and washed with buffer A containing 0.5 M NaCl followed by a final wash with buffer A.
Cellular lysates and their immunoprecipitates containing 10-30 μg of protein plus Laemmli buffer (1:1) were incubated at 95° C. for 5 min. […]

OB-R [2] = molecular target: T1, OB-R; assay: LIF-R levels in human endometrial cells (immunoprecipitation/Western blot); type: cell-based; conditions: for effect on leptin-induced increase of LIF-R levels: leptin 62 nM, peptide 300 nM, 24 h; for leptin-induced expression of LIF-R: leptin 3-62 nM
Protocol: as §1, §2, §3, §4
Cellular lysates and their immunoprecipitates containing 10-30 μg of protein plus Laemmli buffer (1:1) were incubated at 95° C. for 5 min. Electrophoresis was performed at 220 V for 5 min followed by 130 V for 45 min (BioRad, electrophoresis apparatus) on 7.5% (for STAT3, p-STAT3, LIF-R and IL-1R tl) and 10% (for OB-R) SDS-PAGE gels. Nuclear lysates were also used to detect p-STAT3. Electroblotting onto 0.2 μm nitrocellulose membranes was performed at 22 V overnight at 4° C. in 48 nM Tris-39 nM glycine buffer containing 0.037% SDS and 20% methanol. […]

Substance: SRNVIQISNDLENLRDLLHVLAFSKS [LPA-2, 26 amino acid peptide, residues 70-95 of helix III of the human leptin molecule; leptin peptide antagonist]
- p-STAT3 level compared to non-treated control cells (OB-R [1]; Ishikawa cells, LPA-2 treatment): decrease level of p-STAT3
- effect on leptin-induced increase of p-STAT3 levels (OB-R [1]; Ishikawa cells, leptin 62 nM): inhibited the leptin-induced increase
- effect on leptin-induced increase of LIF-R levels (OB-R [2]; Ishikawa cells): reduced the leptin-induced increase

Substance: VAEVLNRSDLIQRISFSLDLNNSKLH [LPA-2Sc, scrambled version of LPA-2, negative control, reference compound]
- effect on leptin-induced increase of p-STAT3 levels (OB-R [1]; Ishikawa cells, leptin 62 nM): had no effect
- effect on leptin-induced increase of LIF-R levels (OB-R [2]; Ishikawa cells): had no effect on LIF-R levels

Substance: leptin: human recombinant leptin (R&D Systems), OB-R ligand used as stimulus
- p-STAT3 levels over non-treated controls after leptin (OB-R [1]; Ishikawa cells, leptin 62 nM): increased the levels of p-STAT3
- p-STAT3 levels after leptin (OB-R [1]; primary EEC, leptin 10 and 62 nM, 5 min, nuclear extracts): increase in the levels of p-STAT3
- leptin-induced expression of LIF-R (OB-R [2]; HES cells): 1.3-2 fold
- leptin-induced expression of LIF-R (OB-R [2]; Ishikawa cells): 1.5-3 fold
- leptin-induced expression of LIF-R (OB-R [2]; primary EEC): 1.7-8 fold
- leptin-induced expression of LIF-R (OB-R [2]; primary ESC): 1.4-3.2 fold
